According to paper PMC4298132:
Square brackets hold non-standard residues; d marks the D form. Ends that are not written are not given here. pS = N[C@@H](COP(=O)(O)O)C(=O)O

Key:
[1] = molecular target: His-SUMO-tagged MLL3 SET domain (UniProt Q8NEZ4); assay: pull-down
[2] = molecular target: Ash2L SPRY domain (UniProt Q9UBL3); assay: isothermal titration calorimetry; settings: reference: unmodified RbBP5 344-357 peptide; sites S350
[3] = molecular target: Ash2L SPRY domain; assay: ITC

RbBP5 344-357, sequence (Q15291 whole entry, looked up, change not shown, the tested form may be a part): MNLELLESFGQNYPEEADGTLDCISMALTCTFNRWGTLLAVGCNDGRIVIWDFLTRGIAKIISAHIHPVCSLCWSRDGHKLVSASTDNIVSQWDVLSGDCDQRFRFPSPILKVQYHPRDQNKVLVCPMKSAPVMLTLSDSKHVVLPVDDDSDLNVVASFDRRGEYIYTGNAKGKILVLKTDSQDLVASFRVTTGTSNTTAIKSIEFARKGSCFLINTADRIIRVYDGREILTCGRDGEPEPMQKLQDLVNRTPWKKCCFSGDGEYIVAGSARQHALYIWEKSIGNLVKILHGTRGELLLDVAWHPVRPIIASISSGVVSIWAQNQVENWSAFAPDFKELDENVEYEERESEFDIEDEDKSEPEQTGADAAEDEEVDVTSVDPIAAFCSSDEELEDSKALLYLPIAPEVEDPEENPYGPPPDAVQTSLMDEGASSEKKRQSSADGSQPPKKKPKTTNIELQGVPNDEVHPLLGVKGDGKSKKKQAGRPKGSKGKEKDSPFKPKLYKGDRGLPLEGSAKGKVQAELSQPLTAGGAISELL
UniProt Q8NEZ4, sequence (Q8NEZ4 4771-4887): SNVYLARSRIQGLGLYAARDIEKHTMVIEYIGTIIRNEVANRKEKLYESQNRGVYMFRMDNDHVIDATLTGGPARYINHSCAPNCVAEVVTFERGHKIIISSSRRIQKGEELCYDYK
UniProt Q9UBL3, sequence (Q9UBL3 380-598): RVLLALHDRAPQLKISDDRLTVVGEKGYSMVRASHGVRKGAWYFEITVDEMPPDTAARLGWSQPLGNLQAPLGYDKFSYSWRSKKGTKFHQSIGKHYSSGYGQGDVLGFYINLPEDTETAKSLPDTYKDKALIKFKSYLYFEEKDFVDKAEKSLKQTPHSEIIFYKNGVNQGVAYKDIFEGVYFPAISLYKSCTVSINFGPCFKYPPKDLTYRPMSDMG

## Ash2L/RbBP5^phos heterodimer (from UniProt Q9UBL3 1-628; Q15291 1-538) (complex)
[1]
  fold increase in binding against Ash2L/RbBP5: 5 fold

## RbBP5 344-357 (from UniProt Q15291) pS350 RbBP5 344-357 peptide
[2]
  fold change: stronger

## EYEERE[pS]EFDIEDE [phosphorylated peptide RbBP5 344-357 (phospho-S350), Q15291 344-357]
[3]
  fold higher affinity against the unmodified peptide: 15 fold
